Results taken from the nanobody polyreactivity screen of Harvey et al. (2022).

Test: yeast display, Sf9 membrane polyspecificity reagent, FACS + sequencing; frameworks hold sequencing errors
Outline: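 Using colony PCR, genes from sorted yeast display clones were amplified, then sequenced on MiSeq at 2 × 250 and filtered by CDR length. The clones had been stained with 10% biotinylated, detergent-solubilized Sf9 membrane reagent for 1 hour at 4 °C and sorted by FACS into low and high (top ~1%) gates on anti-HA and streptavidin fluorescence. Polyreactivity labels come from the gate of origin.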

Question: Which “polyreactivity (PSR sort gate)” value does the source give for “QVQLVESVGGLVQAGGSLRLSCAASGSTFYGYAMGWYRQAPGKETELVAAINWSGGSTFYADSVKGRFTISRDNAKNTVYLKMNSLKPEDTAVYYCNKAWRGSVSRRYYYWGQGTQVTVSS” here?
Answer: high polyreactivity

Question: With “QVQLVESGGGLVQAGGSLRLSCAASGRIFLHYAMGWYRQAPGKERELVAGITKSGSSTYYADSVKGRFTISRDNAKNTVYLQMNSLKPEDTAVYYCAARKIHHHVYGAWPRYGYWGQGTQVTVSS” as the sequence, how does the “polyreactivity (PSR sort gate)” value read?
Answer: high polyreactivity

Question: Which “polyreactivity (PSR sort gate)” value does the source give for “QVQLVESGGGLVQAGGSLRLSCAASGITFYEYAMGWYRQAPGKEREFVAAIDDGDSSTYYADSVKGRFTISRDNAKNTVYLQMNSLKPEDTAVYYCNADPYYDYSLNWGDYWGQGTQVTVSS” here?
Answer: low polyreactivity

Question: With “QVQLVESGGGLVQAGGSLRFSCAASGSTFIGYAMGWYRQAPGKERELVAGISRGGRTNYADSVKGRFTISRDNAKHTVYLQMNSLKPEDTAVYYCAAGYRRYYEGFWVIQMNYWGQGTQVTVSS” as the sequence, how does the “polyreactivity (PSR sort gate)” value read?
Answer: high polyreactivity

Question: With “QVQLVESGGGLVQAGGSLRLSCAASGSIFKNYAMGWYRQAPGKERELVAAITSGGRTYYADSVKGRFTISRDNAKNTVYLQMNSLKPEDTAVYYCAALGRYGYYYWGQGTQVTVSS” as the sequence, how does the “polyreactivity (PSR sort gate)” value read?
Answer: high polyreactivity

Question: For “QVQLVESGGGLVQAGGSLRLTCAASGRTFRTYAMGWYRQAPGKERELVAAITSGGNTYYADSVKGRFTISRDNAKNTVYLQMNSLKPEDTAVYYCAAVQYFKVSYWGQGTQVTVSS”, which “polyreactivity (PSR sort gate)” value is on record?
Answer: high polyreactivity

Question: With “QVQLVESGGGLVQAGGSLRLSCAASGNILGYNAMGWYRQAPGKERELVAAITQSGGSTYYADSVKGRFTISRDNAKNTVDLQMNSLIPEDTAVYYCAAVGYYYSALDMDYWGQGTQVTVSS” as the sequence, how does the “polyreactivity (PSR sort gate)” value read?
Answer: low polyreactivity

Question: Which “polyreactivity (PSR sort gate)” value does the source give for “QVQLVESGGGLVQAGGSLRLSSAASGITFSEYAMGRYRQAPGKERELVATITSGGSTNYADSVKGRFTISRDNAKNTVYLQMNSLKPEDTAVYYCNALDGTVDFSGWYDDWGQGTQVTVSS” here?
Answer: low polyreactivity

Question: Which “polyreactivity (PSR sort gate)” value does the source give for “QVQLVESGGGLVQAGGSLRLSCAASGFTFSRYAMGWYRQAPGKERELVAVITWNGGRTYYADSVKGRFTISRDNAKNTVYLLMNSLKPEDTAVYYCKAYYFFLPYRYSTYDYWGQGTQVTVSS” here?
Answer: high polyreactivity

Question: For “QVQLVESGGGLGQAGGSLRLSCAASGRTFDNYAMGWYRQAPGKERELVARITDTGGSTYYADSVKGRFTISRVNAKNTVYLQMNSLKPEDTAVYYCAAVSYPFAWYWLYYYWGQGTQVTVSS”, which “polyreactivity (PSR sort gate)” value is on record?
Answer: low polyreactivity

Question: With “QVQLVESGGGLVQAGGSLRLSCAASGRIFTDYAMGWYRQAPGKERELVAAINFSGGSTYYADSVKGRFTISRDNAKNTVYLQMHSLKPEDTAVYYCAAQGYYDDMYYWGQGTQVTESS” as the sequence, how does the “polyreactivity (PSR sort gate)” value read?
Answer: high polyreactivity

Question: For “QVQLVESGGGLVQAGGSLRLSCAASGSTFPVNTMGWYRQAPGKERELVAAISSDDNTNYADSVKGRFTISRDNAKNTVYLQMNSLKPEDTAVYYCAVKGHPAYVEVPPRYAWEFDYWGQGTQVTVSS”, which “polyreactivity (PSR sort gate)” value is on record?
Answer: low polyreactivity

Question: With “QVQLVESGGGLVQAGGSLRLSCAASGSTFAYNAMGWYRQAPGKERELVAAIDINDGNTYYADSVKGRFTISRDNAKNTVYLQMNSLNPEDTAVYYCAAEGPYYLGLDGVKDDYWGQGTQVTVSS” as the sequence, how does the “polyreactivity (PSR sort gate)” value read?
Answer: low polyreactivity

Question: With “QVQLVESGGGLVQAGGSLRLSCAASGSTFGPYAMGWYRQAPGKERELVAAITLSGGSTYYADSVKGRFTISRDYAKNTVYLQLNRLKPEYTAVYYCAAEYDRVDEDDYWGQGTQVTVSS” as the sequence, how does the “polyreactivity (PSR sort gate)” value read?
Answer: high polyreactivity

Question: Which “polyreactivity (PSR sort gate)” value does the source give for “QVQLVESGGGLVQAGGSLRLSCAASGRTFVYYAMGWYSQAPGKERELVAAISSSGGSTSYADSVNGRFTISRDNAKNTVYLQMNSVKPEDTAVYYCAADVSVSGYYYWGQGTQVTVSS” here?
Answer: high polyreactivity

Question: Which “polyreactivity (PSR sort gate)” value does the source give for “QVQLVESGGCLIKEVGSLRLSCAASGNIFVFYGKGWYRQAPGKERELVAAIDSGGSSTYYADSVKGRFTISRDNAKNTVYLKMKSLKPEDTAFDYCSARPYYSWNYDYWGQGTQVTVSS” here?
Answer: low polyreactivity

Question: With “QVQLVESGGGLVQAGGSLRLSCAASGRIFYFYAMGWYRQAPGKERELVASISYSGGNTYYADSVKGRFTISRDNAKNTVYLQMNSLKPEDTAVYYCNVLPNTGARGYYYWGQGTQVNVSS” as the sequence, how does the “polyreactivity (PSR sort gate)” value read?
Answer: low polyreactivity

Question: For “QVQLVESGGGLVQAGGRLRLSCAASGFIFGTYTMGWYRQAPGKERELVAAITNGGSTYADSVKGRFTISRDNAKNTVYLQMISLKPEDTAVYYCAADYRGHSGAWYDYWGLGTQVTVSS”, which “polyreactivity (PSR sort gate)” value is on record?
Answer: low polyreactivity

Question: For “QVQRVESGGGLVQAGGSLRLSCAASGSIYRWNARGWSRQATGKERELVAVINSSGGSTYYADSVKGRFTISRDNAKNTVYLQMNSLKPEDTAVYYCAADLFLECSSQYAPNWWPDGWNTYRLLGGYWGQGTQVTVSS”, which “polyreactivity (PSR sort gate)” value is on record?
Answer: low polyreactivity

Question: Which “polyreactivity (PSR sort gate)” value does the source give for “QVQLVESGGGLVQAGGSLRLSCAASGRIFYYYAMGWSRQAPGKERELVADITWSGGSTYYADSVKVRFTISRDNAKNTVYLQMNSLKTEDTAVYYCNADRLRSTHDYWGQGTQVTVSS” here?
Answer: high polyreactivity

Question: With “QVQLEESGGGLVQAGGSLRLSCAASGIIFTTYDMGWYRQATGKERELVAAISSSTTNTYYADSVKGRFTISRDNAKNTVYLQMNSLKPEDTAVYYCAAPYKRNAGFDYWGQGTQVTVSS” as the sequence, how does the “polyreactivity (PSR sort gate)” value read?
Answer: low polyreactivity

Question: Which “polyreactivity (PSR sort gate)” value does the source give for “QVQLVESGGGLVQAGGSLRLSCAASGSIFRFYAMGWYRQAPGTERELVAAISSSGSSTYYADSVKGRFTISRDNAMNTVYLQMNSLKPEDTAVYYCNARLGWSRAWSMDSWGQGTQVTVSS” here?
Answer: high polyreactivity
